We go through two molecules from paper PMC4552939, “Structural Analysis of the Regulatory Domain of ExsA, a Key Transcriptional Regulator of the Type Three Secretion System in Pseudomonas aeruginosa” (PLoS ONE, 2015).

In series [1] the target is ExsA-L117R (Pseudomonas aeruginosa) (UniProt P26993).
Series [2] concerns the molecule itself. Put plainly: crystal structure; hanging-drop vapor diffusion at 25°C; 1.6M MgSO4, 0.1M MES pH 6.5, 0.1M EGTA; dimers A/A' and B/B'' made by crystallographic two-fold axes.

With “ExsA-L117R (from UniProt P26993 1-278) (natural protein)”, the activation of transcription in vitro at 16, 32 and 64 nM protein, against wild-type ExsA in series [1] worked out at 10 fold.

B1: ExsA amino-terminal domain (ExsA-NTD), amino acids 2-178 (domain or fragment)
chain: QGAKSLGRKQITSCHWNIPTFEYRVNKEEGVYVLLEGELTVQDIDSTFCLAPGELLFVRRGSYVVSTKGKDSRILWIPLSAQFLQGFVQRFGALLSEVERCDEPVPGIIAFAATPLLAGCVKGLKELLVHEHPPMLACLKIEELLMLFAFSPQGPLLMSVLRQLSNRHVERLQLFME
notes: thermolysin product, amino acids 2-178 by LC-MS; A selenomethionine-substituted sample was also made (E. coli BL21(DE3), minimal medium), crystallised under identical conditions and used for phasing; Residues 2-10 and 166-178 (chain A) and 2-9 and 167-178 (chain B) gave no density; also called regulatory domain of ExsA; ExsA N-terminal domain protein; source: E. coli BL21(DE3) CodonPlus RIL, …
For B1, in series [2], the binding result is recorded as “binds”.
